In patent US20260185137:

B1: R1-I77R, RING domain construct of rhesus monkey TRIM5alpha with the I77R mutation (protein)
chain: ASGILLNVKEEVTCPICLELLTEPLSLHCGHSFCQACITANHKKSMLYKEGERSCPVCRISYQPENIQPNRHVANRVEKLREVKLSPEE
B2: R3-I77R, trimeric RING-foldon construct of rhesus monkey TRIM5alpha with the I77R mutation (protein)
chain: ASGILLNVKEEVTCPICLELLTEPLSLHCGHSFCQACITANHKKSMLYKEGERSCPVCRISYQPENIQPNRHVANRVEKLREVKLSPEEGQKVDGYIPEAPRDGQAYVRKDGEWVFLSTFLHHHHHH
B3: R2-WT, tandem RING dimer construct of rhesus monkey TRIM5alpha (protein)
chain: ASGILLNVKEEVTCPICLELLTEPLSLHCGHSFCQACITANHKKSMLYKEGERSCPVCRISYQPENIQPNRHVANIVEKLRGSASGILLNVKEEVTCPICLELLTEPLSLHCGHSFCQACITANHKKSMLYKEGERSCPVCRISYQPENIQPNRHVANIVEKLREVKLSPEEGQ
B4: R3-WT, trimeric RING construct of rhesus monkey TRIM5alpha fused to T4 fibritin foldon (protein)
chain: ASGILLNVKEEVTCPICLELLTEPLSLHCGHSFCQACITANHKKSMLYKEGERSCPVCRISYQPENIQPNRHVANIVEKLREVKLSPEEGQKVDGYIPEAPRDGQAYVRKDGEWVFLSTFLHHHHHH

What was measured:
[1] = target: AF594-UBE2W~AF488-Ub conjugate, Q96B02
[2] = target: AF594-UBE2N~AF488-Ub/UBE2V2 conjugate, P61088
Sequence of AF594-UBE2N~AF488-Ub/UBE2V2 conjugate, P61088 (P61088 whole entry, looked up): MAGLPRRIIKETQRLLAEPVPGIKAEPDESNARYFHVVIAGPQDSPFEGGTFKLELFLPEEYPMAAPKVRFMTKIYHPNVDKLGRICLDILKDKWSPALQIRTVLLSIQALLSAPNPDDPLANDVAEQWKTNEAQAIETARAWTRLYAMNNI

Sequence of AF594-UBE2W~AF488-Ub conjugate, Q96B02 (Q96B02 whole entry, looked up): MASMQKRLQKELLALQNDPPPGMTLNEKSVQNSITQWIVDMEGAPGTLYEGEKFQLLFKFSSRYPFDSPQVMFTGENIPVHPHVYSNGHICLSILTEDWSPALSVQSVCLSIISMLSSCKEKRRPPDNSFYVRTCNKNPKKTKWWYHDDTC

Row | Protein | E3 activity (initial slope of Michaelis-Menten curve of FRET decay amplitude), FRET ubiquitin discharge assay [1] | E3 activity (kcat/Km) for ubiquitin discharge, FRET ubiquitin discharge assay [2] | E3 activity per RING monomer for ubiquitin discharge, FRET ubiquitin discharge assay [2]
1 | B1 | the R3-177R and R1-177R constructs retained less than 10% of the R3-WT and R1-WT E3 activity, respectively | catalysis of ubiquitin discharge from the UBE2N/V2-Ub conjugate is virtually abolished by the I77R mutation in the R1-177R and R3-177R constructs | 
2 | B2 | the R3-177R and R1-177R constructs retained less than 10% of the R3-WT and R1-WT E3 activity, respectively | catalysis of ubiquitin discharge from the UBE2N/V2-Ub conjugate is virtually abolished by the I77R mutation in the R1-177R and R3-177R constructs | 
3 | B3 |  | The E3 activity of the R2-WT is also significantly higher than that of the R1-WT | 
4 | B4 | significantly higher activity of the R3-WT construct in comparison to R2-WT |  | the E3 activity per RING monomer is lower in the R3-WT construct than in R2-WT
